Data: US20210130471A1 (DRAGONFLY THERAPEUTICS, published 2021)
Substitutions are numbered along the chain they refer to. Blank lines part the entries; values can stand above or below the binder they belong to.

Tests used:
[1] = biological target: T1, human NKG2D expressed on EL4 cells (Example 8) (human, UniProt P26718 1-216); assay: flow cytometry on EL4 cells expressing human NKG2D
T1 construct: whole, on cells; also called extracellular NKG2D expressed on EL4 cells
T1 sequence (looked up): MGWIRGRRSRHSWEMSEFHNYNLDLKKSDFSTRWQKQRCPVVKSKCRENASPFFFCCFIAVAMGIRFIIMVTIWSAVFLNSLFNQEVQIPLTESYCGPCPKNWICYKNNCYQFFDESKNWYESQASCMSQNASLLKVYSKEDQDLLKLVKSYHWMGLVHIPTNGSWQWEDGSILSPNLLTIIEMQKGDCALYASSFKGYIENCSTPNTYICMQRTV
Protocol: EL4 mouse lymphoma cell lines were engineered to express human NKG2D. […] The binding of the multi-specific binding proteins to NKG2D was detected using fluorophore-conjugated anti-human IgG secondary antibodies. Cells were analyzed by flow cytometry, and fold-over-background (FOB) was calculated using the mean fluorescence intensity (MFI) of NKG2D-expressing cells compared to parental EL4 cells.

[2] = biological target: T2, CD33 expressed on human AML cells (MV4-11, Molm-13) (human, UniProt P20138 18-364); assay: flow cytometry on Molm-13 and MV4-11 human AML cells
T2 construct: In the assay the endogenous CD33 of the human AML cell lines was the target; also called cell surface CD33; tumor associated antigen CD33
T2 sequence (P20138 18-364 limits assumed): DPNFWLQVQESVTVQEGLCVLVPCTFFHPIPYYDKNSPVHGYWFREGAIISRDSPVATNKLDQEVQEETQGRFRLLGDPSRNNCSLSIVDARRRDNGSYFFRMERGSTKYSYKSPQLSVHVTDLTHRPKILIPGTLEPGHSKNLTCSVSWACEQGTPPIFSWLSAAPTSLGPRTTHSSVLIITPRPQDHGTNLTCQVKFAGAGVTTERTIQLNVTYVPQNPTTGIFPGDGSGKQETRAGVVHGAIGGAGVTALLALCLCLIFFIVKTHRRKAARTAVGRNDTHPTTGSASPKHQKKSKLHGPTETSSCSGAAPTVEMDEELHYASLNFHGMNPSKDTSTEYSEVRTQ
Protocol: Human AML cell line MV4-11 and Molm-13 expressing CD33 were used to assay the binding of TriNKETs to the tumor associated antigen CD33. TriNKETs and optionally the parental anti-CD33 monoclonal antibody were incubated with the cells, and the binding was detected using fluorophore-conjugated anti-human IgG secondary antibodies. Cells were analyzed by flow cytometry, and fold-over-background (FOB) was calculated using the mean fluorescence intensity (MFI) from the TriNKETs and the parental monoclonal anti-CD33 antibody normalized to secondary antibody controls. […] The TriNKETs show binding to cell surface CD33 on MV4-11 (FIGS. 36A, 36B, and 36D) and Molm-13 cells (FIG. 36C).

binding result [1]: binds
B1: CD33-TriNKET-C26 (ADI-28226 and a CD33-binding domain) (bispecific antibody, V domains shown)
VH 1: QVQLQQWGAGLLKPSETLSLTCAVYGGSFSGYYWSWIRQPPGKGLEWIGEIDHSGSTNYNPSLKSRVTISVDTSKNQFSLKLSSVTAADTAVYYCARARGPWSFDPWGQGTLVTVSS
VL 1: DIQMTQSPSTLSASVGDRVTITCRASQSISSWLAWYQQKPGKAPKLLIYKASSLESGVPSRFSGSGSGTEFTLTISSLQPDDFATYYCQQYGSFPITFGGGTKVEIK
VH 2: QVQLVQSGAEVKKPGASVKVSCKASGYTFTDYVVHWVRQAPGQGLEWMGYINPYNDGTKYNEKFKGRVTMTRDTSISTAYMELSRLRSDDTAVYYCARDYRYEVYGMDYWGQGTLVTVSS
VL 2: DIVLTQSPASLAVSPGQRATITCTASSSVNYIHWYQQKPGQPPKLLIYDTSKVASGVPARFSGSGSGTDFTLTINPVEANDTANYYCQQWRSYPLTFGQGTKLEIK

binding result [1]: binds
B2: CD33-TriNKET-A49 (ADI-27749 and a CD33-binding domain) (bispecific antibody, V domains shown)
VH 1: EVQLVESGGGLVKPGGSLRLSCAASGFTFSSYSMNWVRQAPGKGLEWVSSISSSSSYIYYADSVKGRFTISRDNAKNSLYLQMNSLRAEDTAVYYCARGAPMGAAAGWFDPWGQGTLVTVSS
VL 1: B1 VL 1 with T10S, L11V, S28G, K50A, E55Q, E70D, D81E, Y91G, G92V, I96R
VH 2: B1 VH 2
VL 2: B1 VL 2

binding result [1]: binds
B3: CD33-TriNKET-A44 (ADI-27744 and a CD33-binding domain) (bispecific antibody, V domains shown)
VH 1: not shown
VL 1: DIQMTQSPSSVSASVGDRVTITCRASQGIDSWLAWYQQKPGKAPKLLIYAASSLQSGVPSRFSGSGSGTDFTLTISSLQPEDFATYYCQQGVSYPRTFGGGTKVEIK
VH 2: B1 VH 2
VL 2: B1 VL 2

binding result [2]: binds
B4: parental anti-CD33 monoclonal antibody (antibody, V domains shown)
VH: B1 VH 2
VL: B1 VL 2
notes: Detected with anti-human IgG; also called parental monoclonal anti-CD33 antibody; parental anti-CD33 antibody

binding result [1]: binds
B5: CD33-TriNKET-F47 (ADI-29447 and a CD33-binding domain) (bispecific antibody, V domains shown)
VH 1: B1 VH 1
VL 1: DIQMTQSPSTLSASVGDRVTITCRASQSISSWLAWYQQKPGKAPKLLIYKASSLESGVPSRFSGSGSGTEFTLTISSLQPDDFATYYCQQYDTFITFGGGTKVEIK
VH 2: B1 VH 2
VL 2: B1 VL 2
